The labels stand for the following.
B1: Uncharacterized protein C1322.02 (Schizosaccharomyces pombe (strain ATCC 38366 / 972)), O94542 (parent)
chain: MIESKGETAPSLNLNDVNVEENDAAQSFAEKVQRFRYQMKVHAAPRQKTLHSFLKKDNANIHDFTKVEKPHIRSSKSKVSYNSITSRVTKYFEEKNNSVDQLHSESLTPLSFGHTIPKKKPLLMTASVSEDSRVRVSKRQFKSKVVHPEIAISIAKRHKPKFPLSDELMNVEPGFHHSNIGCQITPYLWISSFRTNVYYLIGNEGDLLSQQVPSISGELNMLRGVCTRIDDDNRYDIEQAGSCFGMSVFPTSDSGEESFTTLESDPIVNCEHDEKKVADNLLVPQVMCSSNISTFFRSPGGKKLYHYLWKNSNALRISSNDLLEILLKHGVYVSLDTLHSWLQERNVNFEK
partner: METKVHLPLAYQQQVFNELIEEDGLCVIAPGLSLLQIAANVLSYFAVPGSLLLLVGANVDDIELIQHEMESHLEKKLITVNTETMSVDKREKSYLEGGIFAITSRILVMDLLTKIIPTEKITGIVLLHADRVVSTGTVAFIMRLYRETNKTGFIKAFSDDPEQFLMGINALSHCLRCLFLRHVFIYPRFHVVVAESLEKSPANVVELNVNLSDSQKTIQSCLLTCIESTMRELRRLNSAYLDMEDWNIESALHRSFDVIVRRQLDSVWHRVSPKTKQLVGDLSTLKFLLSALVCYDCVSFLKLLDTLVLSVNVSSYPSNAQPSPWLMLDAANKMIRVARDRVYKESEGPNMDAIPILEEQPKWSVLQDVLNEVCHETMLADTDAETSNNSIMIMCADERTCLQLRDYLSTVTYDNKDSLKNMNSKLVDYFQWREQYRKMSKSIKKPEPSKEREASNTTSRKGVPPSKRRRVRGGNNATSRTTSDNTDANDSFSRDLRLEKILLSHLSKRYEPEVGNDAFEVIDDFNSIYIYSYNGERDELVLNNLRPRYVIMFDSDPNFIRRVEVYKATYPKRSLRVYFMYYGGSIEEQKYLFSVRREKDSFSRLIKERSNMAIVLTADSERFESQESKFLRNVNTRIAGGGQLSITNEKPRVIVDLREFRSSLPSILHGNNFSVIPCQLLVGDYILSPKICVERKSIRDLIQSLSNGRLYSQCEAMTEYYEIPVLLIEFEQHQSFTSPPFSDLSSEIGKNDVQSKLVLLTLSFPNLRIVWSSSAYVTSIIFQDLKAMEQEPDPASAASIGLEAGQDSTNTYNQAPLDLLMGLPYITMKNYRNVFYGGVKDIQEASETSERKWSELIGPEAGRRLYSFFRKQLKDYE
B2: Uncharacterized protein C1322.02 (Schizosaccharomyces pombe (strain ATCC 38366 / 972)), O94542 (parent)
chain: B1 chain
partner: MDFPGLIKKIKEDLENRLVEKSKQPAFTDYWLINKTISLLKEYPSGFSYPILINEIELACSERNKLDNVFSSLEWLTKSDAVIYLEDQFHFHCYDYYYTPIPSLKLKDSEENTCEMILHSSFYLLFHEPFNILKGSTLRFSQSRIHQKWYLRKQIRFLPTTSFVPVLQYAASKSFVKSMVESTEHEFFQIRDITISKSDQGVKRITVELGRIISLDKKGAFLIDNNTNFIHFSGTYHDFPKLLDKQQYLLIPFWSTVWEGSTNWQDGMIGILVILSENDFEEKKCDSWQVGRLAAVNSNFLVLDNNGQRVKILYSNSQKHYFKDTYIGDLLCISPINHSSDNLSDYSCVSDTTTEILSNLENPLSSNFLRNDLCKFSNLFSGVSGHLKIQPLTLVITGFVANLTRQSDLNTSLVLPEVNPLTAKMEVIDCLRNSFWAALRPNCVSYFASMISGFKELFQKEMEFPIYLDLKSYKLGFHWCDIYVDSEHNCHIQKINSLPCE

Experimental findings from IntAct's records for PubMed 25203555 are described below.

The variants in the first test derive from B1. The following applies: with rad16_schpo rad16, P36617.
MIESKGETAPSLNLNDVNVEENDAAQSFAEKVQRFRYQMKVHAAPRQKTLHSFLKKDNANIHDFTKVEKPHIRSSKSKVSYNSITSRVTKYFEEKNNSVDQLHSESLTPLSFGHTIPKKKPLLMTASVSEDSRVRVSKRQFKSKVVHPEIAISIDKRHKPKFPLSDELMNVAPGFHHSNIGCQITPYLWISSFRTNVYYLIGNEGDLLSQQVPSISGELNMLRGVCTRIDDDNRYDIEQAGSCFGMSVFPTSDSGEESFTTLESDPIVNCEHDEKKVADNLLVPQVMCSSNISTFFRSPGGKKLYHYLWKNSNALRISSNDLLEILLKHGVYVSLDTLHSWLQERNVNFEK [A155D;E172A]: the “effect of a mutation on the interaction” value is “disrupting interaction strength”.

Another test covers variants of B2. The following applies: with cdc24_schpo cdc24, O75004.
Take MIESKGETAPSLNLNDVNVEENDAAQSFAEKVQRFRYQMKVHAAPRQKTLHSFLKKDNANIHDFTKVEKPHIRSSKSKVSYNSITSRVTKYFEEKNNSVDQLHSESLTPLSFGHTIPKKKPLLMTASVSEDSRVRVSKRQFKSKVVHPEIAISIAKRHKPKFPLSDELMNVEPGFHHSNIGCQITPYLWISSFRTNVYYLIGNEGDLLSQQVPSISGELNMLRGVCTRIDDDNRYDIEQAGSCFGMSVFPTSDSGEESFTTLESDPIVNCEHDEKKVADNLLVPQVMCAANASTAARSPGGKKLYHYLWKNSNALRISSNDLLEILLKHGVYVSLDTLHSWLQERNVNFEK [S289A;S290A;I292A;F295A;F296A]: the “effect of a mutation on the interaction” value was “decreasing interaction strength”.
